Measurements from PMC4303762, “Identification of PLXDC1 and PLXDC2 as the transmembrane receptors for the multifunctional factor PEDF” (eLife, 2014).

Molecular target: the molecule itself
Assay: cross-linking; membranes of HEK293 cells transfected with the receptor, in PBS; disulfide bond formation catalysed by 0.5 mM Cu (II) phenanthroline, 5 min; non-reducing and reducing SDS-PAGE, Western blot for the receptor

B1: PLXDC1 in membranes of transfected HEK293 cells (copper phenanthroline crosslinking) (receptor, human, UniProt Q8IUK5 19-500, looked up)
chain: LSPQPGAGHDEGPGSGWAAKGTVRGWNRRARESPGHVSEPDRTQLSQDLGGGTLAMDTLPDNRTRVVEDNHSYYVSRLYGPSEPHSRELWVDVAEANRSQVKIHTILSNTHRQASRVVLSFDFPFYGHPLRQITIATGGFIFMGDVIHRMLTATQYVAPLMANFNPGYSDNSTVVYFDNGTVFVVQWDHVYLQGWEDKGSFTFQAALHHDGRIVFAYKEIPMSVPEISSSQHPVKTGLSDAFMILNPSPDVPESRRRSIFEYHRIELDPSKVTSMSAVEFTPLPTCLQHRSCDACMSSDLTFNCSWCHVLQRCSSGFDRYRQEWMDYGCAQEAEGRMCEDFQDEDHDSASPDTSFSPYDGDLTTTSSSLFIDSLTTEDDTKLNPYAGGDGLQNNLSPKTKGTPVHLGTIVGIVLAVLLVAAIILAGIYINGHPTSNAALFFIERRPHHWPAMKFRSHPDHSTYAEVEPSGHEKEGFMEAEQC
notes: human PLXDC1 with its cytoplasmic tail ending in the conserved cysteine; Detected by a Western blot for the receptor; also called the receptor; source: HEK293, transfected, in membrane preparation
stoichiometry N: 2
